In the supplement of paper PMC11316812:
± gives the standard deviation of the averaged measurements.

Columns and labels:
hTERT-HMEC = test: percentage of EdU-negative (G0-arrested) nuclei per well, 72 h; higher = more G0 arrest; conditions: reference: sequence is the full UniProt precursor, the tested protein was the secreted form or ectodomain
MCF7 = test: as above; conditions: reference: sequence is the full UniProt precursor, the tested protein was the secreted form or ectodomain
[1] = protein concentration 0.0225 µM
[2] = protein concentration 0.02275 µM
[3] = protein concentration 0.2275 µM
[4] = protein concentration 0.019635 µM
[5] = protein concentration 0.19635 µM
[6] = protein concentration 0.0208571 µM
[7] = protein concentration 0.208571 µM
[8] = protein concentration 0.0072075 µM
[9] = protein concentration 0.072075 µM
[10] = protein concentration 0.0357143 µM
[11] = protein concentration 0.357143 µM
[12] = protein concentration 0.00625 µM
[13] = protein concentration 0.0625 µM
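Also: secreted proteins added to cultured cells, EdU pulse at the end, nuclei found by Hoechst imaging, EdU status from nuclear versus surrounding ring intensity ratio, PBS as neutral control.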

## MGIELLCLFFLFLGRNDHVQGGCALGGAETCEDCLLIGPQCAWCAQENFTHPSGVGERCDTPANLLAKGCQLNFIENPVSQVEILKNKPLSVGRQKNSSDIVQIAPQSLILKLRPGGAQTLQVHVRQTEDYPVDLYYLMDLSASMDDDLNTIKELGSRLSKEMSKLTSNFRLGFGSFVEKPVSPFVKTTPEEIANPCSSIPYFCLPTFGFKHILPLTNDAERFNEIVKNQKISANIDTPEGGFDAIMQAAVCKEKIGWRNDSLHLLVFVSDADSHFGMDSKLAGIVIPNDGLCHLDSKNEYSMSTVLEYPTIGQLIDKLVQNNVLLIFAVTQEQVHLYENYAKLIPGATVGLLQKDSGNILQLIISAYEELRSEVELEVLGDTEGLNLSFTAICNNGTLFQHQKKCSHMKVGDTASFSVTVNIPHCERRSRHIIIKPVGLGDALELLVSPECNCDCQKEVEVNSSKCHHGNGSFQCGVCACHPGHMGPRCECGEDMLSTDSCKEAPDHPSCSGRGDCYCGQCICHLSPYGNIYGPYCQCDNFSCVRHKGLLCGGNGDCDCGECVCRSGWTGEYCNCTTSTDSCVSEDGVLCSGRGDCVCGKCVCTNPGASGPTCERCPTCGDPCNSKRSCIECHLSAAGQAREECVDKCKLAGATISEEEDFSKDGSVSCSLQGENECLITFLITTDNEGKTIIHSINEKDCPKPPNIPMIMLGVSLAILLIGVVLLCIWKLLVSFHDRKEVAKFEAERSKAKWQTGTNPLYRGSTSTFKNVTYKHREKQKVDLSTDC
hTERT-HMEC; [1]
  percentage of EdU-negative: 5.434 ± 0.051%
hTERT-HMEC; protein concentration 0.225 µM
  percentage of EdU-negative: 6.34 ± 1.4%
MCF7; [1]
  percentage of EdU-negative: 23.6 ± 0.48%
MCF7; protein concentration 0.225 µM
  percentage of EdU-negative: 28 ± 1.7%

## MGIGRSEGGRRGAALGVLLALGAALLAVGSASEYDYVSFQSDIGPYQSGRFYTKPPQCVDIPADLRLCHNVGYKKMVLPNLLEHETMAEVKQQASSWVPLLNKNCHAGTQVFLCSLFAPVCLDRPIYPCRWLCEAVRDSCEPVMQFFGFYWPEMLKCDKFPEGDVCIAMTPPNATEASKPQGTTVCPPCDNELKSEAIIEHLCASEFALRMKIKEVKKENGDKKIVPKKKKPLKLGPIKKKDLKKLVLYLKNGADCPCHQLDNLSHHFLIMGRKVKSQYLLTAIHKWDKKNKEFKNFMKKMKNHECPTFQSVFK [Q8N474]
hTERT-HMEC; protein concentration 0.008 µM
  percentage of EdU-negative: 5.94 ± 0.1%
hTERT-HMEC; protein concentration 0.08 µM
  percentage of EdU-negative: 7.36 ± 1.1%
MCF7; protein concentration 0.008 µM
  percentage of EdU-negative: 25.5 ± 1.6%
MCF7; protein concentration 0.08 µM
  percentage of EdU-negative: 26.5 ± 2.3%

## MGILKLQVFLIVLSVALNHLKATPIESHQVEKRKCNTATCATQRLANFLVHSSNNFGAILSSTNVGSNTYGKRNAVEVLKREPLNYLPL
hTERT-HMEC; [2]
  percentage of EdU-negative: 4.22 ± 0.57%
hTERT-HMEC; [3]
  percentage of EdU-negative: 5.2 ± 0.82%
MCF7; [2]
  percentage of EdU-negative: 26.1 ± 1.4%
MCF7; [3]
  percentage of EdU-negative: 26.8 ± 4.2%

## MGILSFLPVLATESDWADCKSPQPWGHMLLWTAVLFLAPVAGTPAAPPKAVLKLEPQWINVLQEDSVTLTCRGTHSPESDSIQWFHNGNLIPTHTQPSYRFKANNNDSGEYTCQTGQTSLSDPVHLTVLSEWLVLQTPHLEFQEGETIVLRCHSWKDKPLVKVTFFQNGKSKKFSRSDPNFSIPQANHSHSGDYHCTGNIGYTLYSSKPVTITVQAPSSSPMGIIVAVVTGIAVAAIVAAVVALIYCRKKRISALPGYPECREMGETLPEKPANPTNPDEADKVGAENTITYSLLMHPDALEEPDDQNRI
hTERT-HMEC; [4]
  percentage of EdU-negative: 4.58 ± 0.074%
hTERT-HMEC; [5]
  percentage of EdU-negative: 5.06 ± 0.42%
MCF7; [4]
  percentage of EdU-negative: 25 ± 1.1%
MCF7; [5]
  percentage of EdU-negative: 25.9 ± 1.6%

## MGIQGGSVLFGLLLVLAVFCHSGHSLQCYNCPNPTADCKTAVNCSSDFDACLITKAGLQVYNKCWKFEHCNFNDVTTRLRENELTYYCCKKDLCNFNEQLENGGTSLSEKTVLLLVTPFLAAAWSLHP
hTERT-HMEC; [1]
  percentage of EdU-negative: 5.4 ± 0.53%
hTERT-HMEC; protein concentration 0.225 µM
  percentage of EdU-negative: 5.24 ± 1.1%
MCF7; [1]
  percentage of EdU-negative: 28.2 ± 1.9%
MCF7; protein concentration 0.225 µM
  percentage of EdU-negative: 25.8 ± 1%

## MGKGDPKKPRGKMSSYAFFVQTCREEHKKKHPDASVNFSEFSKKCSERWKTMSAKEKGKFEDMAKADKARYEREMKTYIPPKGETKKKFKDPNAPKRPPSAFFLFCSEYRPKIKGEHPGLSIGDVAKKLGEMWNNTAADDKQPYEKKAAKLKEKYEKDIAAYRAKGKPDAAKKGVVKAEKSKKKKEEEEDEEDEEDEEEEEDEEDEDEEEDDDDE
hTERT-HMEC; [1]
  percentage of EdU-negative: 5.16 ± 0.5%
hTERT-HMEC; protein concentration 0.225 µM
  percentage of EdU-negative: 5.64 ± 0.066%
MCF7; [1]
  percentage of EdU-negative: 23.1 ± 4.2%
MCF7; protein concentration 0.225 µM
  percentage of EdU-negative: 24.5 ± 0.87%

## MGKNKLLHPSLVLLLLVLLPTDASVSGKPQYMVLVPSLLHTETTEKGCVLLSYLNETVTVSASLESVRGNRSLFTDLEAENDVLHCVAFAVPKSSSNEEVMFLTVQVKGPTQEFKKRTTVMVKNEDSLVFVQTDKSIYKPGQTVKFRVVSMDENFHPLNELIPLVYIQDPKGNRIAQWQSFQLEGGLKQFSFPLSSEPFQGSYKVVVQKKSGGRTEHPFTVEEFVLPKFEVQVTVPKIITILEEEMNVSVCGLYTYGKPVPGHVTVSICRKYSDASDCHGEDSQAFCEKFSGQLNSHGCFYQQVKTKVFQLKRKEYEMKLHTEAQIQEEGTVVELTGRQSSEITRTITKLSFVKVDSHFRQGIPFFGQVRLVDGKGVPIPNKVIFIRGNEANYYSNATTDEHGLVQFSINTTNVMGTSLTVRVNYKDRSPCYGYQWVSEEHEEAHHTAYLVFSPSKSFVHLEPMSHELPCGHTQTVQAHYILNGGTLLGLKKLSFYYLIMAKGGIVRTGTHGLLVKQEDMKGHFSISIPVKSDIAPVARLLIYAVLPTGDVIGDSAKYDVENCLANKVDLSFSPSQSLPASHAHLRVTAAPQSVCALRAVDQSVLLMKPDAELSASSVYNLLPEKDLTGFPGPLNDQDNEDCINRHNVYINGITYTPVSSTNEKDMYSFLEDMGLKAFTNSKIRKPKMCPQLQQYEMHGPEGLRVGFYESDVMGRGHARLVHVEEPHTETVRKYFPETWIWDLVVVNSAGVAEVGVTVPDTITEWKAGAFCLSEDAGLGISSTASLRAFQPFFVELTMPYSVIRGEAFTLKATVLNYLPKCIRVSVQLEASPAFLAVPVEKEQAPHCICANGRQTVSWAVTPKSLGNVNFTVSAEALESQELCGTEVPSVPEHGRKDTVIKPLLVEPEGLEKETTFNSLLCPSGGEVSEELSLKLPPNVVEESARASVSVLGDILGSAMQNTQNLLQMPYGCGEQNMVLFAPNIYVLDYLNETQQLTPEIKSKAIGYLNTGYQRQLNYKHYDGSYSTFGERYGRNQGNTWLTAFVLKTFAQARAYIFIDEAHITQALIWLSQRQKDNGCFRSSGSLLNNAIKGGVEDEVTLSAYITIALLEIPLTVTHPVVRNALFCLESAWKTAQEGDHGSHVYTKALLAYAFALAGNQDKRKEVLKSLNEEAVKKDNSVHWERPQKPKAPVGHFYEPQAPSAEVEMTSYVLLAYLTAQPAPTSEDLTSATNIVKWITKQQNAQGGFSSTQDTVVALHALSKYGAATFTRTGKAAQVTIQSSGTFSSKFQVDNNNRLLLQQVSLPELPGEYSMKVTGEGCVYLQTSLKYNILPEKEEFPFALGVQTLPQTCDEPKAHTSFQISLSVSYTGSRSASNMAIVDVKMVSGFIPLKPTVKMLERSNHVSRTEVSSNHVLIYLDKVSNQTLSLFFTVLQDVPVRDLKPAIVKVYDYYETDEFAIAEYNAPCSKDLGNA
hTERT-HMEC; [6]
  percentage of EdU-negative: 4.57 ± 0.3%
hTERT-HMEC; [7]
  percentage of EdU-negative: 5.37 ± 0.84%
MCF7; [6]
  percentage of EdU-negative: 23 ± 0.6%
MCF7; [7]
  percentage of EdU-negative: 27.8 ± 2.3%

## MGKPWLRALQLLLLLGASWARAGAPRCTYTFVLPPQKFTGAVCWSGPASTRATPEAANASELAALRMRVGRHEELLRELQRLAAADGAVAGEVRALRKESRGLSARLGQLRAQLQHEAGPGAGPGADLGAEPAAALALLGERVLNASAEAQRAAARFHQLDVKFRELAQLVTQQSSLIARLERLCPGGAGGQQQVLPPPPLVPVVPVRLVGSTSDTSRMLDPAPEPQRDQTQRQQEPMASPMPAGHPAVPTKPVGPWQDCAEARQAGHEQSGVYELRVGRHVVSVWCEQQLEGGGWTVIQRRQDGSVNFFTTWQHYKAGFGRPDGEYWLGLEPVYQLTSRGDHELLVLLEDWGGRGARAHYDGFSLEPESDHYRLRLGQYHGDAGDSLSWHNDKPFSTVDRDRDSYSGNCALYQRGGWWYHACAHSNLNGVWHHGGHYRSRYQDGVYWAEFRGGAYSLRKAAMLIRPLKL [Q8NI99]
hTERT-HMEC; [8]
  percentage of EdU-negative: 4.22 ± 0.45%
hTERT-HMEC; [9]
  percentage of EdU-negative: 5.15 ± 0.94%
MCF7; [8]
  percentage of EdU-negative: 23.9 ± 1.3%
MCF7; [9]
  percentage of EdU-negative: 25.7 ± 0.84%

## MGKSASKQFHNEVLKAHNEYRQKHGVPPLKLCKNLNREAQQYSEALASTRILKHSPESSRGQCGENLAWASYDQTGKEVADRWYSEIKNYNFQQPGFTSGTGHFTAMVWKNTKKMGVGKASASDGSSFVVARYFPAGNVVNEGFFEENVLPPKK [Q9H4G4]
hTERT-HMEC; [10]
  percentage of EdU-negative: 4.55 ± 0.31%
hTERT-HMEC; [11]
  percentage of EdU-negative: 7.6 ± 0.95%
MCF7; [10]
  percentage of EdU-negative: 25.6 ± 0.71%
MCF7; [11]
  percentage of EdU-negative: 24.5 ± 0.79%

## MGKSESQMDITDINTPKPKKKQRWTPLEISLSVLVLLLTIIAVTMIALYATYDDGICKSSDCIKSAARLIQNMDATTEPCTDFFKYACGGWLKRNVIPETSSRYGNFDILRDELEVVLKDVLQEPKTEDIVAVQKAKALYRSCINESAIDSRGGEPLLKLLPDIYGWPVATENWEQKYGASWTAEKAIAQLNSKYGKKVLINLFVGTDDKNSVNHVIHIDQPRLGLPSRDYYECTGIYKEACTAYVDFMISVARLIRQEERLPIDENQLALEMNKVMELEKEIANATAKPEDRNDPMLLYNKMTLAQIQNNFSLEINGKPFSWLNFTNEIMSTVNISITNEEDVVVYAPEYLTKLKPILTKYSARDLQNLMSWRFIMDLVSSLSRTYKESRNAFRKALYGTTSETATWRRCANYVNGNMENAVGRLYVEAAFAGESKHVVEDLIAQIREVFIQTLDDLTWMDAETKKRAEEKALAIKERIGYPDDIVSNDNKLNNEYLELNYKEDEYFENIIQNLKFSQSKQLKKLREKVDKDEWISGAAVVNAFYSSGRNQIVFPAGILQPPFFSAQQSNSLNYGGIGMVIGHEITHGFDDNGRNFNKDGDLVDWWTQQSASNFKEQSQCMVYQYGNFSWDLAGGQHLNGINTLGENIADNGGLGQAYRAYQNYIKKNGEEKLLPGLDLNHKQLFFLNFAQVWCGTYRPEYAVNSIKTDVHSPGNFRIIGTLQNSAEFSEAFHCRKNSYMNPEKKCRVW
hTERT-HMEC; [12]
  percentage of EdU-negative: 4.08 ± 0.18%
hTERT-HMEC; [13]
  percentage of EdU-negative: 5.51 ± 0.24%
MCF7; [12]
  percentage of EdU-negative: 25 ± 1.8%
MCF7; [13]
  percentage of EdU-negative: 27.41 ± 0.064%

## MGLEKPQSKLEGGMHPQLIPSVIAVVFILLLSVCFIASCLVTHHNFSRCKRGTGVHKLEHHAKLKCIKEKSELKSAEGSTWNCCPIDWRAFQSNCYFPLTDNKTWAESERNCSGMGAHLMTISTEAEQNFIIQFLDRRLSYFLGLRDENAKGQWRWVDQTPFNPRRVFWHKNEPDNSQGENCVVLVYNQDKWAWNDVPCNFEASRICKIPGTTLN [Q8WXI8]
hTERT-HMEC; [1]
  percentage of EdU-negative: 6.12 ± 0.23%
hTERT-HMEC; protein concentration 0.225 µM
  percentage of EdU-negative: 6.07 ± 0.51%
MCF7; [1]
  percentage of EdU-negative: 23.5 ± 0.48%
MCF7; protein concentration 0.225 µM
  percentage of EdU-negative: 25.2 ± 0.46%
